Measurements reported in patent US20080274950A1 (BABRAHAM INSTITUTE, published 2008).

T1: chicken N-cadherin Fc fusion protein with the pocket-blocking mutation A80I (chicken; human, UniProt P10288 165-728, A80I)
T1 construct: extracellular domain; also called A80I mutant; not shown: hinge region, CH2 and CH3 domains of human IgG1 heavy chain (vector pIgSig)
T1 sequence (looked up): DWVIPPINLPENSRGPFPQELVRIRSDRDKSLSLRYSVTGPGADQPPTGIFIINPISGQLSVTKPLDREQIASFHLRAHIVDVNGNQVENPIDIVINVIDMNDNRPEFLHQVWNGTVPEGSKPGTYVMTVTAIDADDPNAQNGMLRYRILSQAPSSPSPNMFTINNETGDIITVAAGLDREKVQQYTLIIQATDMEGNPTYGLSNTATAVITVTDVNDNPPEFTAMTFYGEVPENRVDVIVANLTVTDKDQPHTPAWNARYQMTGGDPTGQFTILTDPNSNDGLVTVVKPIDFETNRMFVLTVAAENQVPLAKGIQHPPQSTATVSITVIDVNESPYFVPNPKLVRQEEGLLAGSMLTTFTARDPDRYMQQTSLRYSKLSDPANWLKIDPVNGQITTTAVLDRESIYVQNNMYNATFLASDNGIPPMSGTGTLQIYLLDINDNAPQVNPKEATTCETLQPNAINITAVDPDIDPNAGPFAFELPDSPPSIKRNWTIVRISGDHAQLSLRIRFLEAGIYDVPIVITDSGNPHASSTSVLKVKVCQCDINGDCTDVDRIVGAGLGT

T2: full length chicken N-cadherin with the mutation E89A expressed on K562 cells (chicken, UniProt P10288 165-912, E89A)
T2 construct: whole, on cells; also called cells expressing the E89A mutation; K562 E89A
T2 sequence (looked up): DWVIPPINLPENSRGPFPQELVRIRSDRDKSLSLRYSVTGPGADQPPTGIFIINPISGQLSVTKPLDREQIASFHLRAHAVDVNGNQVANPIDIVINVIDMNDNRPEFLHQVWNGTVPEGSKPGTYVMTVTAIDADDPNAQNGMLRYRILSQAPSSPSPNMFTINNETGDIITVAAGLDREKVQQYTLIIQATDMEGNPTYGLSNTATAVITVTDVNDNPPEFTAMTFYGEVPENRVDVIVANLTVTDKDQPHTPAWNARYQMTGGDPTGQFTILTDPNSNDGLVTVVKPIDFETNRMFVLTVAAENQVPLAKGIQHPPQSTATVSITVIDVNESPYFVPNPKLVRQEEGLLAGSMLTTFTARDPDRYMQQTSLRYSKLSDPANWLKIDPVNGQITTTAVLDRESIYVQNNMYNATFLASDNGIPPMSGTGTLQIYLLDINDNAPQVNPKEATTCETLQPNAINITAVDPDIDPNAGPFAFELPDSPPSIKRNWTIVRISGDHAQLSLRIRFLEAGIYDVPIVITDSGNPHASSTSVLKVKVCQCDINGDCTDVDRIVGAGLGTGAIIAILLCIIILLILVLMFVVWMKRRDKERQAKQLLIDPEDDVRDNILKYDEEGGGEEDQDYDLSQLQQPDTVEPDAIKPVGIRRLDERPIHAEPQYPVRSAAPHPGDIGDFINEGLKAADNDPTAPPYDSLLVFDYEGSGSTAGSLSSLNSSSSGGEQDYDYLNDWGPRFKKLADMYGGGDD

B1: chicken N-cadherin-Fc fusion protein with the mutation W2G, dimeric (Fc fusion, UniProt P10288 165-728, looked up)
chain: DGVIPPINLPENSRGPFPQELVRIRSDRDKSLSLRYSVTGPGADQPPTGIFIINPISGQLSVTKPLDREQIASFHLRAHAVDVNGNQVENPIDIVINVIDMNDNRPEFLHQVWNGTVPEGSKPGTYVMTVTAIDADDPNAQNGMLRYRILSQAPSSPSPNMFTINNETGDIITVAAGLDREKVQQYTLIIQATDMEGNPTYGLSNTATAVITVTDVNDNPPEFTAMTFYGEVPENRVDVIVANLTVTDKDQPHTPAWNARYQMTGGDPTGQFTILTDPNSNDGLVTVVKPIDFETNRMFVLTVAAENQVPLAKGIQHPPQSTATVSITVIDVNESPYFVPNPKLVRQEEGLLAGSMLTTFTARDPDRYMQQTSLRYSKLSDPANWLKIDPVNGQITTTAVLDRESIYVQNNMYNATFLASDNGIPPMSGTGTLQIYLLDINDNAPQVNPKEATTCETLQPNAINITAVDPDIDPNAGPFAFELPDSPPSIKRNWTIVRISGDHAQLSLRIRFLEAGIYDVPIVITDSGNPHASSTSVLKVKVCQCDINGDCTDVDRIVGAGLGT
notes: extracellular domain; Full length (EC1-EC5) Fc construct; also called W2G mutant; W2G protein; not shown: hinge region, CH2 and CH3 domains of human IgG1 heavy chain (vector pIgSig)
B2: monomeric chicken N-cadherin-Fc with the double mutation W2G,D134A (Fc fusion, UniProt P10288 165-728, looked up)
chain: DGVIPPINLPENSRGPFPQELVRIRSDRDKSLSLRYSVTGPGADQPPTGIFIINPISGQLSVTKPLDREQIASFHLRAHAVDVNGNQVENPIDIVINVIDMNDNRPEFLHQVWNGTVPEGSKPGTYVMTVTAIAADDPNAQNGMLRYRILSQAPSSPSPNMFTINNETGDIITVAAGLDREKVQQYTLIIQATDMEGNPTYGLSNTATAVITVTDVNDNPPEFTAMTFYGEVPENRVDVIVANLTVTDKDQPHTPAWNARYQMTGGDPTGQFTILTDPNSNDGLVTVVKPIDFETNRMFVLTVAAENQVPLAKGIQHPPQSTATVSITVIDVNESPYFVPNPKLVRQEEGLLAGSMLTTFTARDPDRYMQQTSLRYSKLSDPANWLKIDPVNGQITTTAVLDRESIYVQNNMYNATFLASDNGIPPMSGTGTLQIYLLDINDNAPQVNPKEATTCETLQPNAINITAVDPDIDPNAGPFAFELPDSPPSIKRNWTIVRISGDHAQLSLRIRFLEAGIYDVPIVITDSGNPHASSTSVLKVKVCQCDINGDCTDVDRIVGAGLGT
notes: extracellular domain; also called the double mutant W2G,D134A; not shown: hinge region, CH2 and CH3 domains of human IgG1 heavy chain (vector pIgSig)

Assays:
[1] = biological target: T1, chicken N-cadherin Fc fusion protein …; experiment: bead aggregation assay, Protein A Dynabeads coated separately and mixed, 1.25 mM CaCl2
Experimental: (§1) Dynabeads (Dynal Biotech) coupled to Protein A were coated with N-cadherin Fc at 1 μg/ml in calcium and magnesium-free HBSS containing 0.1% Tween 20, 1% FCS and 4 mM EDTA. Eppendorf tubes containing beads and fusion protein were rotated slowly for 1 hour at room temperature to allow binding to take place. The beads were then washed in the above assay buffer lacking EDTA and then resuspended in the same buffer supplemented with 1.25 mM CaCl₂. Beads were allowed to aggregate in a volume of 100 μl for 2 hours at 37° C. by slow rotation, in an eppendorf tube, at approximately 20 rpm. Aggregation was then assessed by light microscopy.
In the experiments described so far in this example, disruption of the salt bridge prevented intramolecular docking of Trp 2 in one or both components of the dimer. In an alternative strategy to prevent intramolecular docking, we removed Trp2 by introducing the mutation W2G or blocked the hydrophobic acceptor pocket with an isoleucine side chain projecting into the cavity using the mutation A801. N-cadherin Fc fusion proteins with these mutations were then tested against our panel of K562 transfectants (FIG. 17a). In keeping with the explanation given in FIG. 5, the W2G mutant acted as a strand acceptor and therefore adhered strongly to the E89A mutant whereas the A80I mutant was a strand donor and adhered to the GG extension mutant. […]

[2] = biological target: T2, full length chicken N-cadherin with the …; experiment: adhesion of K562 transfectants to coated N-cadherin Fc
Experimental: Adhesion tests were conducted substantially as described in Example 1. Briefly, K562 Cells or L cells transfected with wild type or mutant N-cadherin were allowed to settle for 45 minutes at 37° C. onto N-cadherin Fc fusion proteins coated at 1 μg/ml to a 96 well plate. Non-adherent cells were then washed off and residual adherent cells were quantitated by measuring acid phosphatase activity. Assays were conducted in quadruplicate and results are expressed as % cells adhering +/−SEM.

[3] = biological target: the molecule itself; experiment: bead aggregation assay, 1.25 mM CaCl2
Experimental: as §1
In the experiments described so far in this example, disruption of the salt bridge prevented intramolecular docking of Trp 2 in one or both components of the dimer. In an alternative strategy to prevent intramolecular docking, we removed Trp2 by introducing the mutation W2G or blocked the hydrophobic acceptor pocket with an isoleucine side chain projecting into the cavity using the mutation A801. N-cadherin Fc fusion proteins with these mutations were then tested against our panel of K562 transfectants (FIG. 17a). In keeping with the explanation given in FIG. 5, the W2G mutant acted as a strand acceptor and therefore adhered strongly to the E89A mutant whereas the A80I mutant was a strand donor and adhered to the GG extension mutant. […] In contrast, beads coated with the W2G or A801 mutants and tested separately clustered in twos and threes, whereas beads coated with the negative control mutant, D134A, were entirely monodisperse. To test whether all five extracellular domains of N-cadherin (EC1-EC5) are necessary for the strong adhesive interaction between the complementary mutants, we compared the adhesive activity of the W2G mutant prepared as a full length (EC1-EC5) Fc fusion protein with that of the same mutant prepared as a truncated construct containing only cadherin domains EC1 and EC2.

[4] = biological target: the molecule itself; experiment: gel filtration on Superdex-200, 1 mM CaCl2
Description: Soluble N-cadherin-Fc fusion protein was obtained by transient transfection of Cos7 Cells as previously described (Corps et al., 2003). […] Soluble N-cadherin-Fc was routinely quantitated using an ELISA for Fc, standardised against purified cadherin-Fc fusion proteins.

Binder | binding result [1] | binding result [2] | binding result [3] | binding result [4]
B1 | binds | binds | binds | –
B2 | – | – | – | no binding
